The nanobody polyreactivity screen of Harvey et al. (2022)

Test: yeast display, Sf9 membrane polyspecificity reagent, FACS + sequencing; frameworks hold sequencing errors
Outline: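 Galactose induction of a Saccharomyces cerevisiae BJ5465 synthetic nanobody display library ran 36–48 hours. The cells were then stained for 1 hour at 4 °C with 10% biotinylated, detergent-solubilized Sf9 membrane reagent, pulled down on streptavidin microbeads and FACS-sorted into low and high (top ~1%) gates on expression and reagent-binding fluorescence. Labels for polyreactivity follow the gate of origin.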

| Sequence | polyreactivity (PSR sort gate) |
| --- | --- |
| QVQLVESGGGLDQAGGSLRLSCAASGIIFVSNAMGWYRQAPGKERELVATITWTGGSTYYADSVKGRFTISRDNAKNTVYLQMNSLKPEDTAVYYCAADLSIRYDHEYGYWGQGTQVTVSS | low polyreactivity |
| QVQLVESGGGLDQAGGSLRLSCAASGITFTRNAMGWYRQAPGKERELVAAITKSGGGTYYADSVKGRFTISRDNAKNTVYLQMNSLKPEDTAVYYCAAYTDKYGDYNYWGQGTLVTVSS | high polyreactivity |
| QVQLVESGGGLDQAGGSLRLSCAASGITFVWNAMGWYRQAPGKERELVATISRGGVRTYYADSVKGRFTISRDNAKNTVYLQMNSLKPEDTAVYYCNKTTLLTVEYDYWGQGTQLTVSS | low polyreactivity |
| QVQLVESGGGLDQAGGSLRLSCAASGLIFGNYANRGYTQAPGKERELVAALSSGGSTHYADSVKGRFTISRDNAKNTVYLQMHSLNPEDTAVYYCAAGYRYAGNGQIANTGGYYWGQGTQVTVSW | low polyreactivity |
| QVQLVESGGGLDQAGGSLRLSCAASGLIFLVNAMGWYRQPPWKERDLVAAIDLDGGITYADSVKGRFTISRDNAKNTVYLQMNSLKPEDTAVYYCAADPSSYGRFTYDYWGQGTQVTVSS | low polyreactivity |
| QVQLVESGGGLDQAGGSLRLSCAASGLIFYAYTMGWYRQAPWKERELVAAINYSGGSTYYADSVKGRFTISRDNAKNTVYLQMNSLKPEDTAVYYCATRTGHWGQGTQVTVSS | low polyreactivity |
| QVQLVESGGGLDQAGGSLRLSCAASGLIFYYYAMGWYRQAPGKERELVAAISSNGGSTYYADSVKGRFTISRDNAKNTVYLQMNSLKPEDTAGYYCAAVGRVDGYRYDYWGQGTQVTVSS | high polyreactivity |
| QVQLVESGGGLDQAGGSLRLSCAASGLTFDANAMGWYRQAPGKERELVAAISSGGSTYADSVKGRFTISRDNAKNTVYLQMNSLKPEDTAVYYCNAVSIDVIQGDYNYWGQGTQVTVSS | low polyreactivity |
| QVQLVESGGGLDQAGGSLRLSCAASGRIFGYYAMGWYRQAPGKERELVAAISRSGGSTNYADSVKGRFTISRDTAKNTVYLQMNSLKPEDTAVYYCAVRYPYYSPFGGYDYWGQGTQVTVSS | high polyreactivity |
| QVQLVESGGGLDQAGGSLRLSCAASGRIFIDNTMAWYRQAPGKERELVAAISWSGGSTYYADSVKGRFTISRDNAKNTVYLQMNSLKPEDTAVYYCAARSLRSNGRTWAVTYDYWGQGTQVTVSS | low polyreactivity |
| QVQLVESGGGLDQAGGSLRLSCAASGRIFRCYAMGWYREAPGKERELVAAISWSSGNTYYADSVKGRFTISRDNAKNTVYLQMNSLKAEDTAVYYCAADFKPTSRSNKYYYWGQGTQVTVSS | high polyreactivity |
| QVQLVESGGGLDQAGGSLRLSCAASGRIFTVYGMGWYRQAPGKERELVAAISWSGGGTYYADSVKGRFTISRDNAKNTVYLQMNSLKPEDTAVYYCNADRQYTWSLVFFSSDYDYWGQGTQVTVSS | low polyreactivity |
| QVQLVESGGGLDQAGGSLRLSCAASGRIFTYYTMGWYRQAPGKERELVATIRWSGGRTYYADSVKGRFTISRDNAKNTVYLQMNSLKPEDTAVYYCAANTYWRHYTPYTYGYWGQGTQVTVSS | high polyreactivity |
| QVQLVESGGGLDQAGGSLRLSCAASGRISVFYAMGWYRQAPGKERELVAAISRGSSTYYADSVKGLFTISRDNAKNTVYLQMNSLKPEETAVYYCNRARYYLYDGGYWGQGTQVTVSS | high polyreactivity |
| QVQLVESGGGLDQAGGSLRLSCAASGRTFGVYAMGWYRQAPGKERELVAAITGRGGSTYYADSVKGRFTISRDNAKNTVYLQMNSLKPEDTAVYYCNAELYEYQSWDDYWGQGTQVTVSS | low polyreactivity |
| QVQLVESGGGLDQAGGSLRLSCAASGRTFKPYAMGWYRQAPGKERELVARISGSGGSTYYADSVKGRFSISRDNAKNTVYLQMNSLKPEDTAVYYCATTPYYWFDYWGQGTQVTVSS | low polyreactivity |
| QVQLVESGGGLDQAGGSLRLSCAASGRTFPYNTMGWYRQAPGKERELVASITYTDGSTSYADSVKGRFTISRDNAKNTVYLQMNSLKPEDTSVYYCAADYYAHQDYRFDYWGQGTQVTVSS | low polyreactivity |
| QVQLVESGGGLDQAGGSLRLSCAASGRTFTRYALCWYRQAPGNVRELVATMTRGARTYYADSVKGRFTISRDNAKNTVYLQMNSLKPVDTAVYYCNAVYSFLSPDQMGYWGQGTQVTVSS | high polyreactivity |
| QVQLVESGGGLDQAGGSLRLSCAASGRTFYSYAMGWYRQAPGKERELVAAITSGGRTKYADSVKGRFTISRDNAKNTVYLQMNSLKAEDTAVYYCAADRVSYYTTPYDYWGQGTQVTVSS | high polyreactivity |
| QVQLVESGGGLDQAGGSLRLSCAASGRTLSRYAMGWYRQAPGKERELVASMSWSGGRTYYADSVKGRFTISRDNAKNTVYLEMNSLKPEDTAVYYCAAVYVTAPFDYWGQGTQVTVSS | low polyreactivity |
| QVQLVESGGGLDQAGGSLRLSCAASGSIFAGYAMGWYRQAHGKERELVAAINWTGDSTYYADSVKGRFTISRDNAKNTVYLQMNRLKPEDTAVYYCAAIRRQKGLWDYYYWGQGTQVTVSS | low polyreactivity |
| QVQLVESGGGLDQAGGSLRLSCAASGSIFDYYTMGWYRQAPGKERELVASITQSGGSTYYADSVKGRFTISRDNAKNTVYLQMTSLKPEDTAVYYCAADGRYVRIRGDYWGQGTQVTVSS | low polyreactivity |

| Sequence | polyreactivity (PSR sort gate) |
| --- | --- |
| QVQLVESGGGLDQAGGSLRLSCAASGSIFFGNAMGWSRQPPGKERELVAAITTSGGSTYYADSVKGRFTISRDNAKNTLYLQMNSLKPEDTAVYYCYARIASWLGSRYEYWGQGTQVTVSS | low polyreactivity |
| QVQLVESGGGLDQAGGSLRLSCAASGSIFGYAMGWYRQAPGKERELVAAIRWGGGSTYYADSVKGRFTISRDNAKKTVYLQMNSLKPEDTAVYYCAARYYRPGVLANYYWGQGTQVTVSS | high polyreactivity |
| QVQLVESGGGLDQAGGSLRLSCAASGSIFPFYAMGWYRQAPGKERELVAAISDRGGSTYYADSVKGRFTISRDNAKNSVYLQMNSLKPEATAVYYCAKGGEVSQGYTDEYDYWGQGTQVTVSS | low polyreactivity |
| QVQLVESGGGLDQAGGSLRLSCAASGSIISGYAMGWYRQAPGKERELVAAISSSGGRTYYADSVKGRFTISRDNAKNTVYLQMNSLKPEDTAVYYCNARQFSRYDYNYWGQGTQETVSS | high polyreactivity |
| QVQLVESGGGLDQAGGSLRLSCAASGSIYNRYAMGWYRQAPGKERELVADISSGGGTSYADSVKGRFTISRDNAKNTVYLQMNSLKPEDTAVYYCAAELYYWTYVRFDYWGQGTQVTVSS | high polyreactivity |
| QVQLVESGGGLDQAGGSLRLSCAASGSIYYTAMGWYRQAPGKERELVASISTGDSTDYADSVKGRFTISRDNAKNTVYLQMNSLKPEDTAVYYCAADTRLGYWDDYWGQGTQVTVSS | low polyreactivity |
| QVQLVESGGGLDQAGGSLRLSCAASGSNFSGWYTMGWYRQAPGKERELVASISISTTDTYYADSVKGRFTISRDNAKKTVYVQMNSLKPEDTAVYYCAAYGWDHVIVEYDYWGQGTQVTVSS | low polyreactivity |
| QVQLVESGGGLDQAGGSLRLSCAASGSTFDTYAMGGYRQAPGKERELVAAISVSGTSTSYADSVKGRFTISRDNAKNTVYLQMNILNPEDTAVYYCIATDFSRNPGYARPEYDYWGQGTQVTVSS | low polyreactivity |
| QVQLVESGGGLDQAGGSLRLSCAASGSTFGGNAMGWYRQAPGKERELVAAISGGDRTNYADSVKGRFTISRDNAKNSVYLQMNSLKPEDTAVYYCAADAGYWDLRSGIYKEDYWGQGTQVTVSS | low polyreactivity |
| QVQLVESGGGLDQAGGSLRLSCAASGSTFRRYAMGWYRQAPGKERELVAAITGSGGRTYYADSVKGRFTISRDNAKNTVYLQMNSLKPEDTAVYYCNAVSYIDYSRARIRYEYWGQGTQVTVSS | high polyreactivity |
| QVQLVESGGGLDQAGGSLRLSCAASGSTFTSYDMGWYIQAPGKERELVAAITISSGGTYYADSVKGRFTISRDTAKNTVYLQMNSLKPEDTEVYYCAADIFADASYDYWGLGTQVTVSS | low polyreactivity |
| QVQLVESGGGLDQAGGSLRLSCAASGSTFVGYAMGWYRQAPGKERELVAAISQSDVSTYYADSVKGRFTISRDNAKNTVYLQMNSLKPEDTAVYYCAADRGGLRWFWQVLYDYWGQGTQVTVSS | low polyreactivity |
| QVQLVESGGGLDQAGGSLRLSCAASGSTSAYYVMGWYRQAPGKERELVAAIDFSGDSTYYADSVKGRFTISRDNAKNTVYLQMISLKPEDSAVYYCAAELFFYSSLVTYEYWGQGTQVTVSS | high polyreactivity |
| QVQLVESGGGLDQAGGSLRLSCAASGSTSLSYAMGWYRQAPGKERELVAAISRGGSTTYADSVKGRFTISRDNAKNPVYFQMKSLKPVDTAVYYCAVGYDIVRYSYSPFYRYDYWGQGTQVTVSS | low polyreactivity |
| QVQLVESGGGLDQAGGSLRLSCAASGSTYPGNAMGWYRQAPGKERELVAAIDSSTGSTYYADSVKGRFTISRDHAKNTVYLQMNSLKPEDNAVYYCNKTSFLVKLDYWGLGTQVTVSS | low polyreactivity |
| QVQLVESGGGLDQAGGSLRLSCAASGSTYSYYAMGWYRQAPGKERELVAAISRSGGSTYYADSVKGRFTISRDNAKNTVYLQMNCMKPEDTAVYYCAARGQYRYSFGDYSWGQGTQVTVSS | high polyreactivity |
| QVQLVESGGGLDQAGGSLRLSCAASGYTLGDYAMGWYRQAPGKERELVAVITRNGGRTYYADSVKGRFTISRDNAKNTVFLQMNSLKPEDTAVYYCNRDTSIRDYNYWGQGTQVTVSS | high polyreactivity |
| QVQLVESGGGLDQAGGSLRLSCAASGYTYLRNAMGWSRQAPGKERELVAAISYSGGGTYYADSVKGRFTISRDNAKNTVYLQMHSLKPEDTAVYYCAADRGGLRWFWQVLYDYWGQGTQVTVSS | low polyreactivity |
| QVQLVESGGGLDQAGGSLRLSCAAYGSTFTYQSMGWYRQATGKERELVAAITWSSDITYYADSVKGRFTISRDNAKSTVYLQMNSLKPEDTAVYYCAADGVTRDYVYWGQGTQVTVSS | low polyreactivity |
| QVQLVESGGGLDQAGGSLRLSCAPSGFIFIRNAMGWYRQAPGKDRELVAAISSGGRTYYADSVKGRFTISRDNAKNTVYLQMNSLKPEDTAVDYCATRPHRPRGQSVGQYDDWGQGTQVTVSS | high polyreactivity |
| QVQLVESGGGLDQAGGSLRLSCAPSGSIFGSYAMGWYRQAPGKERELVAAIRRSSASTYYADSVKGRFTISRDNAKNTVYLQMNSLKPEDTAVYYCATQSYSDYGYRYRYAAYDYWGQGTQVTVSS | high polyreactivity |
